Data on 3 molecules can be found in patent US20100162418A1 (Kyowa Kirin, published 2010).

Experiment [1] concerns the target T1, MSPS, purified recombinant human Protein S obtained from FUT8 knockout CHO/DG44 cells (human, UniProt P07225 42-676, gamma-carboxylated glutamic acid (Gla) in the Gla domain; complex type N-glycoside-linked sugar chains without fucose (fucose not detected)).
T1 construct: It differs from KCPS only in glycosylation (no core fucose); also called fucose-free recombinant Protein S
T1 sequence: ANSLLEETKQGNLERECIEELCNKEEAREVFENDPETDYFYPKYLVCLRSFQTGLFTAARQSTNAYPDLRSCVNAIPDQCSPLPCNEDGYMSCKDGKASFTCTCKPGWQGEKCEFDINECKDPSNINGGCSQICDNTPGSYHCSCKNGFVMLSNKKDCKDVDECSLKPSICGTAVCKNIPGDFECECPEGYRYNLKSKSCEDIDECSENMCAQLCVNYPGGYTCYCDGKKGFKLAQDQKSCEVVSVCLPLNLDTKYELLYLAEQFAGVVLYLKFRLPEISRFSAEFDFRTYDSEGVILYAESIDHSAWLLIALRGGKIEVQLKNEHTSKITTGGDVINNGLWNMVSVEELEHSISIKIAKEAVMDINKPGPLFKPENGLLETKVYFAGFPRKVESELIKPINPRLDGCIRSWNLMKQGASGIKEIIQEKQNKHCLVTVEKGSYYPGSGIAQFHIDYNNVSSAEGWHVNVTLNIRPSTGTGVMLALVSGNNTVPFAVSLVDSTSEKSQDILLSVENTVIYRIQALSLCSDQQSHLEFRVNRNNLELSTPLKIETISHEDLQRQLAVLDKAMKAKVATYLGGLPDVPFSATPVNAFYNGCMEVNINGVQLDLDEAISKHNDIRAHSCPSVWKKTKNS
The experiment is described as follows: SPR (Biacore), HMGB-1 immobilised on C1 chip, MSPS as analyte.

Experiment [2] concerns the target T2, recombinant human RAGE-Fc fusion protein (manufactured by R&D Systems) (human, UniProt Q15109 24-344).
T2 construct: Bought fusion protein; also called recombinant soluble RAGE-human IgG1 Fc chimeric protein; not shown: Fc of human IgG1
Briefly: SPR (Biacore), HMGB-1 immobilised on C1 chip, RAGE-Fc (50000, 5000, 500 ng/mL) as analyte. From the text:
(§1) Using an amine coupling kit (manufactured by Biacore), human plasma-derived Protein S (manufactured by Calbiochem), human plasma-derived complement C4 binding protein (C4BP; manufactured by BioMed), and human plasma-derived complement C1 inhibitor Berinert P (manufactured by CSL Behring) were respectively immobilized on flow cells of a CM5 sensor chip (manufactured by Biacore). An immobilized amount of the ligand protein on the respective flow cells was set to the range of 2400 to 3600 resonance units (hereinafter referred to as “RU”). The complement C4 binding protein and the complement C1 inhibitor are known as plasma glycoproteins having the anti-inflammatory effect. Then, a recombinant human RAGE-Fc fusion protein (manufactured by R&D Systems) diluted to given concentrations (50000, 25000, 12500, 6250, 3125, and 1562 ng/mL) using HBS-EP+buffer (manufactured by Biacore), as an analyte, was allowed to run and bind to the ligand-immobilized flow cells at a temperature of 25° C., a flow rate of 5 μL/min, association time of 140 seconds, and dissociation time of 240 seconds. The chip was regenerated by a flow of an aqueous glycine solution (pH 1.5) (manufactured by Biacore) for 60 seconds. […]

In experiment [3] the target is T1, MSPS, purified recombinant human …. Briefly: SPR (Biacore), S100A8/A9 immobilised on C1 chip, MSPS as analyte. As to the method: Using an amine coupling kit (manufactured by Biacore), recombinant human HMGB-1 (manufactured by R&D Systems), recombinant human Mac-1 heterodimer (αmβ2 integrin, CD11b/CD18; manufactured by R&D Systems), and recombinant human S100A8/A9 (manufactured by R&D Systems) were respectively immobilized at 200 RU, 1200 RU, and 400 RU on flow cells of a Series S C1 sensor chip (manufactured by Biacore). The measurement was carried out in the same manner as in Example 5, except that the recombinant human RAGE-Fc fusion protein (manufactured by R&D Systems) diluted to given concentrations of 50000, 5000 or 500 ng/mL was used as an analyte.
Next, using the same sensor chip, the same binding experiment was carried out using a recombinant human RAGE-Fc fusion protein (5000 ng/mL) mixed with MSPS (final concentration of 50000 and 5000 μg/mL), as an analyte.

The target of experiment [4] is T2, recombinant human RAGE-Fc fusion …. The experiment is described as follows: SPR (Biacore), S100A8/A9 immobilised on C1 chip, RAGE-Fc (50000, 5000, 500 ng/mL) as analyte.
Text: as §1

The target in experiment [5] is T3, human plasma-derived Protein S (manufactured by Calbiochem) (human, UniProt P07225 42-676, gamma-carboxylated glutamic acid (Gla) in the N-terminal Gla domain; complex type N-glycoside-linked sugar chains (Asn458, Asn468, Asn489), partly with core alpha1,6-fucose (Fuc 0.26 per Man 3.00)).
T3 construct: Bought protein purified from human plasma; also called native Protein S; Human plasma Protein S
T3 sequence: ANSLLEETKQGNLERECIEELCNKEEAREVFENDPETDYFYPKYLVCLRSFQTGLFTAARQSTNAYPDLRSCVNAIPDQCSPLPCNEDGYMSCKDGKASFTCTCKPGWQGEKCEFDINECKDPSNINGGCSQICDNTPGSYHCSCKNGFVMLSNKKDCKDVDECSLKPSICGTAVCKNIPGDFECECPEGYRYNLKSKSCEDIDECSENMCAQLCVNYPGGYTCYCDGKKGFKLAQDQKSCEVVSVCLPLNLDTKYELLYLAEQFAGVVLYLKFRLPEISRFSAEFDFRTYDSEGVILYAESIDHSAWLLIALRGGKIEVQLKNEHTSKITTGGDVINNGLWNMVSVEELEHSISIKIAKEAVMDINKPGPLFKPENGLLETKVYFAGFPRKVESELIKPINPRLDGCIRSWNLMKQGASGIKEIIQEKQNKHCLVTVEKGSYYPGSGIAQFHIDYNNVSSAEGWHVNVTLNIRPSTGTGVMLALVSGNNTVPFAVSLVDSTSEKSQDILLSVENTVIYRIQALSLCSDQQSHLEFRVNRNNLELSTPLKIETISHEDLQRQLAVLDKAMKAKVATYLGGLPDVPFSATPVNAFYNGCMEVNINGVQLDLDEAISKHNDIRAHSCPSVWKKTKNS
The experiment is described as follows: SPR (Biacore), plasma Protein S immobilised on CM5, E-selectin Fc as analyte.

T2 sequence (Q15109 24-344 limits assumed): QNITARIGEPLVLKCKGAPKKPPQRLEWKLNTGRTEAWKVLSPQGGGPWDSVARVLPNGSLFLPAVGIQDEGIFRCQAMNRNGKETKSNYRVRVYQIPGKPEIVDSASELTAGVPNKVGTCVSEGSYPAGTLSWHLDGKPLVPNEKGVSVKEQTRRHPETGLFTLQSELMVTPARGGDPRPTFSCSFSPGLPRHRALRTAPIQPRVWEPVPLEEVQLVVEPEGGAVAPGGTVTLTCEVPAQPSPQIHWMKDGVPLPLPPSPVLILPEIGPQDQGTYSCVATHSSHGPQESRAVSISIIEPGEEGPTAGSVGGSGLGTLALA

B1: recombinant human HMGB-1 (manufactured by R&D Systems) (ligand, UniProt P09429 1-215, looked up)
chain: MGKGDPKKPRGKMSSYAFFVQTCREEHKKKHPDASVNFSEFSKKCSERWKTMSAKEKGKFEDMAKADKARYEREMKTYIPPKGETKKKFKDPNAPKRPPSAFFLFCSEYRPKIKGEHPGLSIGDVAKKLGEMWNNTAADDKQPYEKKAAKLKEKYEKDIAAYRAKGKPDAAKKGVVKAEKSKKKKEEEEDEEDEEDEEEEEDEEDEDEEEDDDDE
Take B1: the binding result in experiment [1] is reported as “no binding”; in experiment [2] it was “binds”.

B2: recombinant human S100A8/A9 (manufactured by R&D Systems) (ligand)
chain 1: MLTELEKALNSIIDVYHKYSLIKGNFHAVYRDDLKKLLETECPQYIRKKGADVWFKELDINTDGAVNFQEFLILVIKMGVAAHKKSHEESHKE
chain 2: MTCKMSQLERNIETIINTFHQYSVKLGHPDTLNQGEFKELVRKDLQNFLKKENKNEKVIEHIMEDLDTNADKQLSFEEFIMLMARLTWASHEKMHEGDEGPGHHHKPGLGEGTP
notes: Bought
In the case of B2, the results for the binding result in experiment [3] and in experiment [4] were “no binding” and “binds”, respectively.

B3: human E-selectin Fc fusion protein (manufactured by R&D systems) (Fc fusion, UniProt P16581 22-556, looked up)
chain: WSYNTSTEAMTYDEASAYCQQRYTHLVAIQNKEEIEYLNSILSYSPSYYWIGIRKVNNVWVWVGTQKPLTEEAKNWAPGEPNNRQKDEDCVEIYIKREKDVGMWNDERCSKKKLALCYTAACTNTSCSGHGECVETINNYTCKCDPGFSGLKCEQIVNCTALESPEHGSLVCSHPLGNFSYNSSCSISCDRGYLPSSMETMQCMSSGEWSAPIPACNVVECDAVTNPANGFVECFQNPGSFPWNTTCTFDCEEGFELMGAQSLQCTSSGNWDNEKPTCKAVTCRAVRQPQNGSVRCSHSPAGEFTFKSSCNFTCEEGFMLQGPAQVECTTQGQWTQQIPVCEAFQCTALSNPERGYMNCLPSASGSFRYGSSCEFSCEQGFVLKGSKRLQCGPTGEWDNEKPTCEAVRCDAVHQPPKGLVRCAHSPIGEFTYKSSCAFSCEEGFELHGSTQLECTSQGQWTEEVPSCQVVKCSSLAVPGKINMSCSGEPVFGTVCKFACPEGWTLNGSAARTCGATGHWSGLLPTCEAPTESNIP
notes: Fc-bearing control protein; bought; not shown: Fc, described as similar to the Fc of human IgG1 contained in the RAGE-Fc fusion protein
On to B3, for which the binding result in experiment [5] is “no binding”.
